{"source": "paper PMC2629732", "binders": {"B1": {"name": "Myogenin TATA probe / TATA competitor (dsDNA)", "DNA 1": "GAGGGTTTAAATGGCACCCAG", "DNA 2": "CTGGGTGCCATTTAAACCCTC"}}, "experiment_in_all_cases": "EMSA", "key": {"TRF3": {"target": "T1, TRF3 (UniProt Q6SJ95 1-350)", "T1 sequence": "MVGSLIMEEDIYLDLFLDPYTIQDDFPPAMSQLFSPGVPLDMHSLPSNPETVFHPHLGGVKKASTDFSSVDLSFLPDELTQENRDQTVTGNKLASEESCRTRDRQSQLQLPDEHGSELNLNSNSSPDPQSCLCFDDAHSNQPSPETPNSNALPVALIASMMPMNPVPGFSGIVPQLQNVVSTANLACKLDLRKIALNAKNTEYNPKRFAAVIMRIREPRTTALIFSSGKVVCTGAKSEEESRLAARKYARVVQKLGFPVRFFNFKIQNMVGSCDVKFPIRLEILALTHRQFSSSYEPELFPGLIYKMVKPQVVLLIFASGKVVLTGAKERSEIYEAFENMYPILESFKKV"}, "TAF3;TRF3": {"target": "T2, TAF3;TRF3 (mouse?;mouse?, UniProt Q5HZG4;Q6SJ95 1-932;1-350, |)", "T2 sequence 1": "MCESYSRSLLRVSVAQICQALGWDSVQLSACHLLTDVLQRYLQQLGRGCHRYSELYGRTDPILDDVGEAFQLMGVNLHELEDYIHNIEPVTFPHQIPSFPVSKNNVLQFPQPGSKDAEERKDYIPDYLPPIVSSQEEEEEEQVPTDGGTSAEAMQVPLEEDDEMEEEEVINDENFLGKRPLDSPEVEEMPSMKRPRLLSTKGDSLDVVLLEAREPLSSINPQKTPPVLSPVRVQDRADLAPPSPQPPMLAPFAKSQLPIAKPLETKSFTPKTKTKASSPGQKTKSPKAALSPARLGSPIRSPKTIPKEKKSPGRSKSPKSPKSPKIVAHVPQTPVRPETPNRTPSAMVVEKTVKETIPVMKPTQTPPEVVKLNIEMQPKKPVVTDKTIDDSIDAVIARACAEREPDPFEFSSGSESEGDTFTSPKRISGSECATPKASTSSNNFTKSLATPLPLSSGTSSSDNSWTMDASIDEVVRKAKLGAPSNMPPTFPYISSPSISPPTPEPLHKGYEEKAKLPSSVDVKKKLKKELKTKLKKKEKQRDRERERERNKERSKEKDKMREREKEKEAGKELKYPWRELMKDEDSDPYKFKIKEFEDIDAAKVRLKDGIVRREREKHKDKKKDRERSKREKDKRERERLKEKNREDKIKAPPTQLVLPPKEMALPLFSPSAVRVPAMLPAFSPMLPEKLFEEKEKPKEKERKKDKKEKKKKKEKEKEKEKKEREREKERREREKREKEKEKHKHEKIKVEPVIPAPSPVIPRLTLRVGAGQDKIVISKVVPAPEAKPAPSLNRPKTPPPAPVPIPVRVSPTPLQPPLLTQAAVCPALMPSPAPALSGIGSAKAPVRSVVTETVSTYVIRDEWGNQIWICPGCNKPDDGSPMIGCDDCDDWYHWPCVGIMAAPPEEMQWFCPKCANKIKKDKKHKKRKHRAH", "T2 sequence 2": "T1 sequence"}, "TAF3": {"target": "T3, TAF3 (UniProt Q5HZG4 1-932)", "T3 sequence": "T2 sequence 1"}}}
{"binder": "B1", "values": [{"measurement": "binding result", "setting": "TRF3", "value": "binds"}, {"measurement": "binding result", "setting": "TAF3;TRF3", "value": "binds"}, {"measurement": "binding result", "setting": "TAF3", "value": "no binding"}]}
